Each block holds one molecule with its values, some of them ahead of it.
Experiments:
[1] = molecular target: T1, FMO-2 (Caenorhabditis elegans, UniProt G5EBJ9); test: NADPH consumption at […] nm, Michaelis-Menten fit; format: biochemical; conditions: 0.5 mM NADPH, excess FAD, 25 mM sodium phosphate pH 8.5, 0.5 mM DETAPAC, 30 C; 0.1-10 mM substrate
T1 construct: purified FMO-2 protein purchased from GenScript
T1 sequence (G5EBJ9 1-529): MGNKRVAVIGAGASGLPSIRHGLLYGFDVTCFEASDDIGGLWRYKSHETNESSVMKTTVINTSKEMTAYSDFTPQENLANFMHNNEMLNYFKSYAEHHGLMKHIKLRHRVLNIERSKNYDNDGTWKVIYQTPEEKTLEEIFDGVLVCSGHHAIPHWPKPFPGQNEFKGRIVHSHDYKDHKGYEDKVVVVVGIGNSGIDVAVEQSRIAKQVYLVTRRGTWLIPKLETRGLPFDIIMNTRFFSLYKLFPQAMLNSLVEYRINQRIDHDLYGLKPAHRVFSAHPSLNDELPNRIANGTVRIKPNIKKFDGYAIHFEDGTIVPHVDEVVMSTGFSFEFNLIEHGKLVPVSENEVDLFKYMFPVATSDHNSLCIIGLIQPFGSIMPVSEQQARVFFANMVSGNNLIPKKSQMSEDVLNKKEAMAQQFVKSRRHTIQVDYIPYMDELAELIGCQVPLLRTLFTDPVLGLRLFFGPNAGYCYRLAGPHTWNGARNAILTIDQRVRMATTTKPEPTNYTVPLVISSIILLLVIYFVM

[2] = substrate: CC(=O)C(=O)O; test: purified protein; format: biochemical, Caenorhabditis elegans; conditions: 0.5 mM NADPH, excess FAD, 25 mM sodium phosphate pH 8.5, 0.5 mM DETAPAC, 30 C

Km [1]: 880 ± 430 µM
Molecule: N[C@@H](Cc1c[nH]c2ccccc12)C(=O)O [tryptophan]

B1: FMO-2 (Caenorhabditis elegans) (protein)
chain: T1 sequence (G5EBJ9 1-529)
notes: purified FMO-2 protein purchased from GenScript
Km [2]: 590 ± 290 µM
kcat [2]: 35 ± 1 s⁻¹
kcat/Km [2]: 59000 M⁻¹ s⁻¹

From PMC12551704, “Metabolic regulation of behavior by the intestinal enzyme FMO-2” (Science Advances, 2025)
